Results taken from the supplement of paper PMC5998384.

How the values were obtained:
HeLa Kyoto [1] = assay: thermal stability score vs G1/S (z-score of summed log2 fold changes over temperatures); higher = more thermally stable than in G1/S
HeLa Kyoto [2] = assay: melting temperature (median over replicates), in situ; higher = more thermally stable
HeLa Kyoto [3] = assay: solubility in G1/S (NP-40 vs SDS abundance) (log2 ratio); higher = more soluble; settings: cell cycle stage: G1/S
HeLa Kyoto [4] = assay: solubility change mitosis vs G1/S (difference of NP-40 vs SDS log2 ratios) (log2 ratio difference); higher = more soluble in mitosis
[5] = cell cycle stage: early G1 (4.5 h after nocodazole release)
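For melting temperature (median over replicates), in situ in this document: HeLa Kyoto cells synchronized by double thymidine or nocodazole block, proteins quantified by TMT10plex mass spectrometry, three independent biological replicates.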
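For solubility change mitosis vs G1/S (difference of NP-40 vs SDS log2 ratios) in this document: synchronized HeLa Kyoto cells (double thymidine block for G1/S, nocodazole release for mitosis), protein amounts in NP-40 versus SDS lysates quantified by mass spectrometry, three biological replicates.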
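For solubility in G1/S (NP-40 vs SDS abundance) in this document: HeLa Kyoto cells arrested at G1/S by double thymidine block, proteins quantified by TMT10plex mass spectrometry in mild NP-40 versus SDS extracts, three biological replicates.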
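For thermal stability score vs G1/S (z-score of summed log2 fold changes over temperatures) in this document: synchronized HeLa Kyoto cells, proteins quantified by TMT10plex mass spectrometry, three biological replicates, mitosis taken 0.5 h after nocodazole release, G1/S directly after double thymidine block.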

Sequence of CDK13 (chain, as listed by the source): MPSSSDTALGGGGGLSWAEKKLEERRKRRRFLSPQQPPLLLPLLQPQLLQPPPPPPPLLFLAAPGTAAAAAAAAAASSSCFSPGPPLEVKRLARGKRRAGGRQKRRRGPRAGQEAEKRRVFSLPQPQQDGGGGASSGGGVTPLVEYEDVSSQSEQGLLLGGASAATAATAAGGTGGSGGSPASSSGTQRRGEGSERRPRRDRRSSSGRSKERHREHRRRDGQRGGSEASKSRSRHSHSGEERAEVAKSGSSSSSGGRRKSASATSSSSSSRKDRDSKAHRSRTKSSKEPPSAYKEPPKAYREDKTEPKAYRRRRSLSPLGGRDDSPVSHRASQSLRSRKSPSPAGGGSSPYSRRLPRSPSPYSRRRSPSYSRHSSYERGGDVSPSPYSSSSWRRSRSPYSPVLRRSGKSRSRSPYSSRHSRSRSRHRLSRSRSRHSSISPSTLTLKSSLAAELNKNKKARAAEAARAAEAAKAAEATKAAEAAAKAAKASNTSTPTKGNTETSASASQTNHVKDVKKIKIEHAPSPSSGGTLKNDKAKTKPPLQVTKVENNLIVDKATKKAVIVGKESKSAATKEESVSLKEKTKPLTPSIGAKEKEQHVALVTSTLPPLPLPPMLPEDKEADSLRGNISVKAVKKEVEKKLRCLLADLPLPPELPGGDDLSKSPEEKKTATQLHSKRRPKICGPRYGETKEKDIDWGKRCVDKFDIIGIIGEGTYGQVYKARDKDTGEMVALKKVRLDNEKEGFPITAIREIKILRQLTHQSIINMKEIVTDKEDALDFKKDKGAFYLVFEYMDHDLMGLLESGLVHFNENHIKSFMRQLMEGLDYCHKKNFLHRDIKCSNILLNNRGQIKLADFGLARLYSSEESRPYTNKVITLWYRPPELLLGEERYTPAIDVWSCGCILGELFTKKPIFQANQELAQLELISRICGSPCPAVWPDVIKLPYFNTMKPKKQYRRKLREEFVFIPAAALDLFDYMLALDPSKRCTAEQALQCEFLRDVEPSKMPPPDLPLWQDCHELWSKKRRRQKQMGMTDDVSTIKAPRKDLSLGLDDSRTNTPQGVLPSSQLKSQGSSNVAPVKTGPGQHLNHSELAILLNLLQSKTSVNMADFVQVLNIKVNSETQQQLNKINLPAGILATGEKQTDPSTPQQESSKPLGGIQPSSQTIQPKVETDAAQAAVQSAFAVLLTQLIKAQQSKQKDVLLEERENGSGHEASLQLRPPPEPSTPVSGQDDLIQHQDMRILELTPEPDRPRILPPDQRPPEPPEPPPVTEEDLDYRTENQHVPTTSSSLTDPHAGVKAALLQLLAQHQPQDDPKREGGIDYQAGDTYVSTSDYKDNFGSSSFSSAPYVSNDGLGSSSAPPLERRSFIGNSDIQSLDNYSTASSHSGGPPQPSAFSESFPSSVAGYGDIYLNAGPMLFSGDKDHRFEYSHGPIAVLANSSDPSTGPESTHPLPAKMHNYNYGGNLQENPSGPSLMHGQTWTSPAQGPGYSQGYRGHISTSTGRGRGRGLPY

Substance	thermal stability score (HeLa Kyoto [1]; [5])	thermal stability score (HeLa Kyoto [1]; cell cycle stage: mitosis)	melting temperature (HeLa Kyoto [2]; cell cycle stage: G1/S)	melting temperature (HeLa Kyoto [2]; cell cycle stage: mitosis)	solubility in G1/S (log2) (HeLa Kyoto [3])	solubility change mitosis (log2) (HeLa Kyoto [4])
MPAVSLPPKENALFKRILRCYEHKQYRNGLKFCKQILSNPKFAEHGETLAMKGLTLNCLGKKEEAYELVRRGLRNDLKSHVCWHVYGLLQRSDKKYDEAIKCYRNALKWDKDNLQILRDLSLLQIQMRDLEGYRETRYQLLQLRPAQRASWIGYAIAYHLLEDYEMAAKILEEFRKTQQTSPDKVDYEYSELLLYQNQVLREAGLYREALEHLCTYEKQICDKLAVEETKGELLLQLCRLEDAADVYRGLQERNPENWAYYKGLEKALKPANMLERLKIYEEAWTKYPRGLVPRRLPLNFLSGEKFKECLDKFLRMNFSKGCPPVFNTLRSLYKDKEKVAIIEELVVGYETSLKSCRLFNPNDDGKEEPPTTLLWVQYYLAQHYDKIGQPSIALEYINTAIESTPTLIELFLVKAKIYKHAGNIKEAARWMDEAQALDTADRFINSKCAKYMLKANLIKEAEEMCSKFTREGTSAVENLNEMQCMWFQTECAQAYKAMNKFGEALKKCHEIERHFIEITDDQFDFHTYCMRKITLRSYVDLLKLEDVLRQHPFYFKAARIAIEIYLKLHDNPLTDENKEHEADTANMSDKELKKLRNKQRRAQKKAQIEEEKKNAEKEKQQRNQKKKKDDDDEEIGGPKEELIPEKLAKVETPLEEAIKFLTPLKNLVKNKIETHLFAFEIYFRKEKFLLMLQSVKRAFAIDSSHPWLHECMIRLFNTAVCESKDLSDTVRTVLKQEMNRLFGATNPKNFNETFLKRNSDSLPHRLSAAKMVYYLDPSSQKRAIELATTLDESLTNRNLQTCMEVLEALYDGSLGDCKEAAEIYRANCHKLFPYALAFMPPGYEEDMKITVNGDSSAEAEELANEI [NAA15]	0.92	-0.18	53.9 °C	52.5 °C	-0.262	-0.124
MAFPHRPDAPELPDFSMLKRLARDQLIYLLEQLPGKKDLFIEADLMSPLDRIANVSILKQHEVDKLYKVENKPALSSNEQLCFLVRPRIKNMRYIASLVNADKLAGRTRKYKVIFSPQKFYACEMVLEEEGIYGDVSCDEWAFSLLPLDVDLLSMELPEFFRDYFLEGDQRWINTVAQALHLLSTLYGPFPNCYGIGRCAKMAYELWRNLEEEEDGETKGRRPEIGHIFLLDRDVDFVTALCSQVVYEGLVDDTFRIKCGSVDFGPEVTSSDKSLKVLLNAEDKVFNEIRNEHFSNVFGFLSQKARNLQAQYDRRRGMDIKQMKNFVSQELKGLKQEHRLLSLHIGACESIMKKKTKQDFQELIKTEHALLEGFNIRESTSYIEEHIDRQVSPIESLRLMCLLSITENGLIPKDYRSLKTQYLQSYGPEHLLTFSNLRRAGLLTEQAPGDTLTAVESKVSKLVTDKAAGKITDAFSSLAKRSNFRAISKKLNLIPRVDGEYDLKVPRDMAYVFGGAYVPLSCRIIEQVLERRSWQGLDEVVRLLNCSDFAFTDMTKEDKASSESLRLILVVFLGGCTFSEISALRFLGREKGYRFIFLTTAVTNSARLMEAMSEVKA [VPS33B]	0.623	0.549	49.9 °C	49.4 °C	-0.121	-0.189
CHD4	3.38	8.56	46.9 °C	49.1 °C	-0.471	0.0937
MVELMFPLLLLLLPFLLYMAAPQIRKMLSSGVCTSTVQLPGKVVVVTGANTGIGKETAKELAQRGARVYLACRDVEKGELVAKEIQTTTGNQQVLVRKLDLSDTKSIRAFAKGFLAEEKHLHVLINNAGVMMCPYSKTADGFEMHIGVNHLGHFLLTHLLLEKLKESAPSRIVNVSSLAHHLGRIHFHNLQGEKFYNAGLAYCHSKLANILFTQELARRLKGSGVTTYSVHPGTVQSELVRHSSFMRWMWWLFSFFIKTPQQGAQTSLHCALTEGLEILSGNHFSDCHVAWVSAQARNETIARRLWDVSCDLLGLPID [RDH11]	-0.184	0.26	49.5 °C	50.2 °C	-0.0695	-0.137
MLSSTAMYSAPGRDLGMEPHRAAGPLQLRFSPYVFNGGTILAIAGEDFAIVASDTRLSEGFSIHTRDSPKCYKLTDKTVIGCSGFHGDCLTLTKIIEARLKMYKHSNNKAMTTGAIAAMLSTILYSRRFFPYYVYNIIGGLDEEGKGAVYSFDPVGSYQRDSFKAGGSASAMLQPLLDNQVGFKNMQNVEHVPLSLDRAMRLVKDVFISAAERDVYTGDALRICIVTKEGIREETVSLRKD [PSMB1]	-1.78	-1.88	57 °C	60.1 °C	-0.00543	-0.098
MARENGESSSSWKKQAEDIKKIFEFKETLGTGAFSEVVLAEEKATGKLFAVKCIPKKALKGKESSIENEIAVLRKIKHENIVALEDIYESPNHLYLVMQLVSGGELFDRIVEKGFYTEKDASTLIRQVLDAVYYLHRMGIVHRDLKPENLLYYSQDEESKIMISDFGLSKMEGKGDVMSTACGTPGYVAPEVLAQKPYSKAVDCWSIGVIAYILLCGYPPFYDENDSKLFEQILKAEYEFDSPYWDDISDSAKDFIRNLMEKDPNKRYTCEQAARHPWIAGDTALNKNIHESVSAQIRKNFAKSKWRQAFNATAVVRHMRKLHLGSSLDSSNASVSSSLSLASQKDCLAPSTLCSFISSSSGVSGVGAERRPRPTTVTAVHSGSK [CAMK1D]	0.0756	0.252	49.8 °C	50.3 °C	0.0619	-0.0784
LRP1	-1.09	-1.22	55.5 °C	55.1 °C	-0.0261	-0.0628
MGLQPLEFSDCYLDSPWFRERIRAHEAELERTNKFIKELIKDGKNLIAATKSLSVAQRKFAHSLRDFKFEFIGDAVTDDERCIDASLREFSNFLKNLEEQREIMALSVTETLIKPLEKFRKEQLGAVKEEKKKFDKETEKNYSLIDKHLNLSAKKKDSHLQEADIQVEQNRQHFYELSLEYVCKLQEIQERKKFEFVEPMLSFFQGMFTFYHQGHELAKDFNHYKMELQINIQNTRNRFEGTRSEVEELMNKIRQNPKDHKRASQFTAEGYLYVQEKRPAPFGSSWVKHYCMYRKAAKKFNMIPFEHRSGGKLGDGEVFFLKECTKRHTDSIDRRFCFDIEAADRPGVSLTMQAFSEEERKQWLEALGGKEALSHSFNTAIIPRPEGNAQLDKMGFTIIRKCISAVETRGINDQGLYRVVGVSSKVQRLLSMLMDVKTCNEVDLENSADWEVKTITSALKQYLRSLPEPLMTYELHGDFIVPAKSGSPESRVNAIHFLVHKLPEKNKEMLDILVKHLTNVSNHSKQNLMTVANLGVVFGPTLMRPQEETVAALMDLKFQNIVVEILIENHEKIFRTPPDTTFPEPTCLSASPPNAPPRQSKRQGQRTKRPVAVYNLCLELEDGDNPYPSKEDTPTSSLDSLSSPSPVTTAVPGPPGPDKNHLLADGGSFGDWASTIPGQTRSSMVQWLNPQSPTTTSSNSAVTPLSPGSSPFPFSPPATVADKPPESIRSRKARAVYPCEAEHSSELSFEIGAIFEDVQTSREPGWLEGTLNGKRGLIPQNYVKLL [ARHGAP10]	-0.188	-0.186	51.7 °C		-0.255	0.08
MAGKKVLIVYAHQEPKSFNGSLKNVAVDELSRQGCTVTVSDLYAMNLEPRATDKDITGTLSNPEVFNYGVETHEAYKQRSLASDITDEQKKVREADLVIFQFPLYWFSVPAILKGWMDRVLCQGFAFDIPGFYDSGLLQGKLALLSVTTGGTAEMYTKTGVNGDSRYFLWPLQHGTLHFCGFKVLAPQISFAPEIASEEERKGMVAAWSQRLQTIWKEEPIPCTAHWHFGQ [NQO2]	-1.69	-2.35	59 °C	62 °C	0.396	-0.0114
MRKPDSKIVLLGDMNVGKTSLLQRYMERRFPDTVSTVGGAFYLKQWRSYNISIWDTAGREQFHGLGSMYCRGAAAIILTYDVNHRQSLVELEDRFLGLTDTASKDCLFAIVGNKVDLTEEGALAGQEKEECSPNMDAGDRVSPRAPKQVQLEDAVALYKKILKYKMLDEQDVPAAEQMCFETSAKTGYNVDLLFETLFDLVVPMILQQRAERPSHTVDISSHKPPKRTRSGCCA [RAB20]	3.91	1.44	54.4 °C	53.8 °C	0.0752	-0.187
MLSRSRCVSRAFSRSLSAFQKGNCPLGRRSLPGVSLCQGPGYPNSRKVVINNSVFSVRFFRTTAVCKDDLVTVKTPAFAESVTEGDVRWEKAVGDTVAEDEVVCEIETDKTSVQVPSPANGVIEALLVPDGGKVEGGTPLFTLRKTGAAPAKAKPAEAPAAAAPKAEPTAAAVPPPAAPIPTQMPPVPSPSQPPSGKPVSAVKPTVAPPLAEPGAGKGLRSEHREKMNRMRQRIAQRLKEAQNTCAMLTTFNEIDMSNIQEMRARHKEAFLKKHNLKLGFMSAFVKASAFALQEQPVVNAVIDDTTKEVVYRDYIDISVAVATPRGLVVPVIRNVEAMNFADIERTITELGEKARKNELAIEDMDGGTFTISNGGVFGSLFGTPIINPPQSAILGMHGIFDRPVAIGGKVEVRPMMYVALTYDHRLIDGREAVTFLRKIKAAVEDPRVLLLDL [DLST]	-2.5	-3.04	61.7 °C	65.9 °C	0.0922	-0.0493
CDK13	-0.541	0.202	50.9 °C	52.5 °C	-0.604	0.194
MAENSVLTSTTGRTSLADSSIFDSKVTEISKENLLIGSTSYVEEEMPQIETRVILVQEAGKQEELIKALKTIKIMEVPVIKIKESCPGKSDEKLIKSVINMDIKVGFVKMESVEEFEGLDSPEFENVFVVTDFQDSVFNDLYKADCRVIGPPVVLNCSQKGEPLPFSCRPLYCTSMMNLVLCFTGFRKKEELVRLVTLVHHMGGVIRKDFNSKVTHLVANCTQGEKFRVAVSLGTPIMKPEWIYKAWERRNEQDFYAAVDDFRNEFKVPPFQDCILSFLGFSDEEKTNMEEMTEMQGGKYLPLGDERCTHLVVEENIVKDLPFEPSKKLYVVKQEWFWGSIQMDARAGETMYLYEKANTPELKKSVSMLSLNTPNSNRKRRRLKETLAQLSRETDVSPFPPRKRPSAEHSLSIGSLLDISNTPESSINYGDTPKSCTKSSKSSTPVPSKQSARWQVAKELYQTESNYVNILATIIQLFQVPLEEEGQRGGPILAPEEIKTIFGSIPDIFDVHTKIKDDLEDLIVNWDESKSIGDIFLKYSKDLVKTYPPFVNFFEMSKETIIKCEKQKPRFHAFLKINQAKPECGRQSLVELLIRPVQRLPSVALLLNDLKKHTADENPDKSTLEKAIGSLKEVMTHINEDKRKTEAQKQIFDVVYEVDGCPANLLSSHRSLVQRVETISLGEHPCDRGEQVTLFLFNDCLEIARKRHKVIGTFRSPHGQTRPPASLKHIHLMPLSQIKKVLDIRETEDCHNAFALLVRPPTEQANVLLSFQMTSDELPKENWLKMLCRHVANTICKADAENLIYTADPESFEVNTKDMDSTLSRASRAIKKTSKKVTRAFSFSKTPKRALRRALMTSHGSVEGRSPSSNDKHVMSRLSSTSSLAGIPSPSLVSLPSFFERRSHTLSRSTTHLI [ECT2]	0.718	0.962	46.9 °C	49.4 °C	-0.347	0.255
MSGDSSGRGPEGRGRGRDPHRDRTRSRSRSRSPLSPRSRRGSARERREAPERPSLEDTEPSDSGDEMMDPASLEAEADQGLCRQIRHQYRALINSVQQNREDILNAGDKLTEVLEEANTLFNEVSRAREAVLDAHFLVLASDLGKEKAKQLRSDLSSFDMLRYVETLLTHMGVNPLEAEELIRDEDSPDFEFIVYDSWKITGRTAENTFNKTHTFHFLLGSIYGECPVPKPRVDRPRKVPVIQEERAMPAQLRRMEESHQEATEKEVERILGLLQTYFREDPDTPMSFFDFVVDPHSFPRTVENIFHVSFIIRDGFARIRLDQDRLPVIEPVSINEENEGFEHNTQVRNQGIIALSYRDWEEIVKTFEISEPVITPSQRQQKPSA [NSMCE4A]	-2.46	-1.49	49.9 °C	50.2 °C	0.182	0.00196
